Results as given in a protein production outcome set (Wang et al. 2014).

Assay: label from the status in PepcDB records

MPRSTWFKALLLLVALWAPLSQAETGWQPIQETIRKSDKDNRQYQAIRLDNGMVVLLVSDPQAVKSLSALVVPVGSLEDPEAYQGLAHYLEHMSLMGSKKYPQADSLAEYLKMHGGSHNASTAPYRTAFYLEVENDALPGAVDRLADAIAEPLLDKKYAERERNAVNAELTMARTRDGMRMAQVSAETINPAHPGSKFSGGNLETLSDKPGNPVQQALKDFHEKYYSANLMKAVIYSNKPLPELAKMAADTFGRVPNKESKKPEITVPVVTDAQKGIIIHYVPALPRKVLRVEFRIDNNSAKFRSKTDELITYLIGNRSPGTLSDWLQKQGLVEGISANSDPIVNGNSGVLAISASLTDKGLANRDQVVAAIFSYLNLLREKGIDKQYFDELANVLDIDFRYPSITRDMDYVEWLADTMIRVPVEHTLDAVNIADRYDAKAVKERLAMMTPQNARIWYISPKEPHNKTAYFVDAPYQVDKISAQTFADWQKKAADIALSLPELNPYIPDDFSLIKSEKKYDHPELIVDESNLRVVYAPSRYFASEPKADVSLILRNPKAMDSARNQVMFALNDYLAGLALDQLSNQASVGGISFSTNANNGLMVNANGYTQRLPQLFQALLEGYFSYTATEDQLEQAKSWYNQMMDSAEKGKAFEQAIMPAQMLSQVPYFSRDERRKILPSITLKEVLAYRDALKSGARPEFMVIGNMTEAQATTLARDVQKQLGADGSEWCRNKDVVVDKKQSVIFEKAGNSTDSALAAVFVPTGYDEYTSSAYSSLLGQIVQPWFYNQLRTEEQLGYAVFAFPMSVGRQWGMGFLLQSNDKQPSFLWERYKAFFPTAEAKLRAMKPDEFAQIQQAVITQMLQAPQTLGEEASKLSKDFDRGNMRFDSRDKIVAQIKLLTPQKLADFFHQAVVEPQGMAILSQISGSQNGKAEYVHPEGWKVWENVSALQQTMPLMSEKNE
protein production: not failed

MNDSAPRRVRVRAPELIGKGGWLNTGDKQYTLADLRGRIVVLDFWTFCCINCLHVLDELRELEEKHRDTVVIIGVHSPKFVHEAEHQAVVDAVERYGVEHPVLDDPELATWKQYAVRAWPTLVVIDPEGYVVAQHAGEGHAHAIAALVAELEAEHEAKGTLRRGDGPYVAPEPEPTVLRFPGKALLLPSGNFLVSDTTRHQLVELAADGESVVRRIGSGIRGFADGPADAASFSEPQGMTLLDEDVVVVADTVNHALRRLDLATGEVTTLAGTGRQWWQGSPASGPAREVDLSSPWDVAVFGGRVWIAMAGGAPAVDVRPGGGDGRGRGGHDERGAGRRTGLEHHHHHH
protein production: not failed

MPGSIPLIGERFPEMEVTTDHGVIKLPDHYVSQGKWFVLFSHPADFTPVCTTEFVSFARRYEDFQRLGVDLIGLSVDSVFSHIKWKEWIERHIGVRIPFPIIADPQGTVARRLGLLHAESATHTVRGVFIVDARGVIRTMLYYPMELGRLVDEILRIVKALKLGDSLKRAVPADWPNNEIIGEGLIVPPPTTEDQARARMESGQYRCLDWWFCWDTPASRDDVEEARRYLRRAAEKPAKLLYEEARTHLH
protein production: not failed

MPRPLSHRNLPMTPQGHCDSRFAPLAEAFARLFDNPQERGAALCLEVGGETVVDLWGGVADKDGEQPWQRDTILNLFSCTKTFTAVAVLQLVAEGKLELDAPVAHYWPEFAAAGKAAISVRQLLCHRAGLPALREQMPPEALYDWQAMTTALAAEEPWWTPGEAHGYAPITYGWLLGEVIRRVDGREPGEAIVARTAAPLGLDFHVGLDDSQFGRVAHMARSKGSLGDAAAQRMLKTMMSEPLALTTRAFTNPPSILTSTNKPEWRRMQQPAANGHGNARALAGFYSGLLQGRLLEDELLGQLAHEHAVGEDRTLLTRTRFGLGTMLDQPGVANATYGLGPKAFGHPGAGGSIGFADPERDLAFSFVSNALGPYVLMDPRAQQLARVAGECL
protein production: failed

MQISIKTVKGKSINLEVADSSDTIDLKINGEPTRQLVLRLGPAVLMRIFVSTIKEKTFILEVKGSDTIKKLKSMIHDQGGPPVDQQDLNHLGTKLKNNATISDYNIKPDANLVIMQNGCIC
protein production: failed

MSAWTMSDPYPATEAHAQRAAKSSPKSLLDRLLSLVRREPEDREGIKAILEAAHERELLDAESYAMIKGALAVSERTVADIMVPRSRMDLLDISQPLPQLLATIIETAHSRFPVYEDDRDNIIGILLAKDLLRYMLEPALDIRSLVRPAVFIPEVKRLNVLLREFRASRNHLAIVIDEHGGISGLVTMEDVLEQIVGDIEDEFDEDEEESIFPEGENQWRLTASTDISHFNATFATDLPDDEYDSVGGWLGGQLGRIPRRGDSADHDGLHIEVVRADARRALWLRVRRNAGAQPPASAAE
protein production: not failed

AAGIDQYALKEFTADFTQFHIGDTVPAMYLTPEYNIKQWQQRNLPAPDAGSHWTYMGGNYVLITDTEGKILKVYDGEIFYHR
protein production: not failed

MATRSCVSRGSAGSAAAGPVEAAIRAKLEQALSPEVLELRNESGGHAVPAGSETHFRVAVVSSRFEGMSPLQRHRLVHEALSEELAGPVHALAIQAKTPAQWRENPQLDISPPCLG
protein production: not failed

MTEFKVVHTICPYCGTGCGIDLVVKDGKVVDSHPFKRHPVNEGKVCIKGNYCYEFVHSEDRLTKPLIKKNGEFIEATWDEALDLIAGKLKQYSPEEVAFFSCARGTNEESYALQKFARTVMKTNNVDHCARI
protein production: failed

MKKFLFILSLFCVLSYAYELKLNANITALKLDKQNLYIGTDKGEILQYNIKDKSLKELLSLPKIKNYYGDDFAKIYNIDIFKHTLLILSEGDFGAKNLSFYKENLQIKKLEENSIIKAFFINENTYLLISIGSEIELIDKSLKNIKKFNFSHSSLNDAVLNEDKSRLIAGFESGEVELFDLKNWKMLKNYDKMHKDNIYQVDFKNNVILSCGTDRRIGVVKNEEQNFLQKDFLIYTCALSPSGEFAVYSDNEAGVSEVFSTSDFKPVKTFNNENLMSEFIIFLNNKDFIVSGFGDSIMFRSIDE
protein production: failed

MSLQRLLQHSSNGNLADFCAGPAYSSYSTLTGSLTMDDNRRIQMLADTVATLPRGRKQLALTRSSSLSDFSWSQRKLVTVEKQDNETFGFEIQSYRPQNQNACSSEMFTLICKIQEDSPAHCAGLQAGDVLANINGVSTEGFTYKQVVDLIRSSGNLLTIETLNGTMILKRTELEAKLQVLKQTLKQKWVEYRSLQLQEHRLLHGDAANCPSLENMDLDELSLFGPLPGPGPALVDRNRLSSESSCKSWLSSMTMDSEDGYQTCVSEDSSRGAFSRQTSTDDECFIPKEGDDFLRRSSSRRNRSISNTSSGSMSPLWEGNLSSMFGTLPRKSRKGSVRKQLLKFIPGLHRAVEEEESRF
protein production: not failed

MAVYMLNMGIVFVWSWFAKMYGREDHRLPTGYRPNAILTVVPLASLIIVAGLRYKVGTDYHTYMLLYELAGKYNSIWEIFGFGTGKSSTDPGFTALLWILNQISADPALMFAVVAAITYIYIVKTLYVYGRPFELSMFLFIGMFHYYASFNGIRQYMAAAILFWAVRYLIDGKLVRYMIVVLICSLFHSSALIMIPVYFIVRRKAWSPVLWCLMLVFLAGTFLYQKFLSVFLVVLENSQYGHYEEWLMKNTNGMNVIKIIVLLLPLALAFCFREQLRKRWPEVDYIVNLCLIGFLFGILATKDVIFARFNIYFGLYQLILVPYFVRIFEPKSNALLYVLILICYFLYSFMLMPFDSSVLPYRTIFER
protein production: failed

QETGISMIGERTNSNGSKAFREAMLSGDWEKCVDIAKQQTRDGAHMLDLCVDYVGRDGTADMATLAALLATSSTLPIMIDSTEPEVIRTGLEHLGGRSIVNSVNFEDGDGPESRYQRIMKLVKQHGAAVVALTIDEEGQARTAEHKVRIAKRLIDDITGSYGLDIKDIVVDCLTFPISTGQEETRRDGIETIEAIRELKKLYPEIHTTLGLSNISFGLNPAARQVLNSVFLNECIEAGLDSAIAHSSKILPMNRIDDRQREVALDMVYDRRTEDYDPLQEFMQLFEGVSAAD
protein production: not failed

DDSLGEAVTTRAEALTIPAVLRARNLLSTTVARTPLVCDGTLPPFVPVAAPPGAATMQTPFHRMLATADDLLFNGVACWALDRDESGTCIGAIHIPLDTWQIEENTVRVNGKAVDPMEVCIFVGIHGGLLTHASETFTDARNLVRAAARVAQNPAALIELRQTNNAQLSPDDVDRIINGYVAARRGRNSGVGFSSSGLEVHEHEMAKENLLIEGRNAAAVDVARAMNVPAAFIDATVGGTSLSYQNAASRMIELVTFGVEPLMSAIEARLNQPDMHADHLANPLKFDPAALLDAIPTTPTIGAQPHGENS
protein production: not failed

MAESKRDYYEVLGVSKDADDAAIKKAYRALAKKYHPDMNPGDAEAEKKFKEASEAYAVLSDAEKRRQYDQFGHAAFEGGAGGAGGFGGFDFNGADFGDIFGDIFGDLFGGGGRRGGRANNGPMKGANIRKSIRITFEEAVFGCKKELEVILKDPCTTCGGTGAKPGTSPETCPKCGGKGQVVYTSQSFFGTVQNVQTCPNCGGSGKVIKEKCTSCSGTGYTSSKKKIEVTIPAGIDNGQSVRIREKGEPGTNGGPRGDLLVEVNVSRHPIFQRQDMHIFSTVPISFAQAALGGDVKIQTVDGAVIYNVKPGTKTDTKVRLKGKGVPSLRNSAVRGDHYVTLVIQTPEKLSAEAKEALRRFDELSGNSLHQNDSNPEKSEKKTKRKGFMDKVKEAFEGED
protein production: failed

MANQLDASVKDDLKTQFVTREGTYRLLTLSEYSRPNRVGYSSNQSSPQVRVSMVTLPSPAQGKLGSDVGVGTPVGGGTAGANTTTTNGSSPGASPTGAAGASTAISNGGAGGDYSHSNHNSNSAGNNTVEARLGGGISMHSMMNGGVVDQNGVATNQVLGGDRICFNFGRDLYVYSFRGAKKGTEMSKPIDKKFYKGTNPSCHDFNISSATPTGAPLLVGFTTGQIQLVSPHVGPREVRKLFNEERLIDKTKVTCLKWLPNSPHLFLAAHASGHLYLYNEELPCAATAPSYQPFKLGDGYTILTSKSKTTRNPLFKWVFSTDNCCVNEFCFSPCGSHLAVVSQDGFLRVFHYDTMELLGIARSYFGGFLCVCWSPDGKYIVVGGEDDLVTVWSLHERRVVARGQGHRSWVSVVAFDPYTTSYTNWDGGDFSDDENQMNEYSHSREARFSGDSTANGGFEGFDRNSTPVHADRNGPHSASFRSDASSAEKLMSYRLGSVSQDTQICLWDITEDVLRHPLVLRQPANSERAYLNGGVDEEAEAEDGIKVIRPVAMSGQATGQQAESGSCSPTREAAGGGTGNGAGEHSNSSSSKFSTANCTISSQSSPDDCDTEAATPASTSSNAGAGSVAGAGAVASTKQNNRNHGTGNSIKFPNCISATKSDSIDGGGGSGSGQRPSQTTSGYNSKTSNSSNKSSNSGSGFSAFNSLTQRLSNFSFLSSSEKKGAGYEGSHSTAHRQHRKAMSMLKSYNQHNHTGGHNNHSQSNNSSSSNFGHSSTLDSNAAGAIGSSSTAHSFGSLKLSRSSHHSSLATAAHASGSAAGSGSGVSSFDPMQLIGTPACPRFDECPLLEPLVCKKIAHERLTALIFREDCFLTACQDGFIYTWARPGHATHATQHLSPGQAAAPGGTVI
protein production: failed

MSLSIVENGRKLESTIDFSRFAQEIKQNGWKIMLAGLIVAVVAYPLISMITPKYVSTATVLLKAQQDNVSPLPQVDGYDSTRSGYYETQYALMQSRIVLEQAVRDIKLDQNPAFNGDTDKNADHRGDEQQRVDHALDSIVKNLTITGVRTTHLATISYESASPELAADIANGAAQAFIDYTARQKHLKTLKAKALNQKQMEEVWQQVVEQQAAIDQFLKKEGLLTFRGVDGFETEQLGIVTTKLADATQRRIRAETNDNSVRSNAGTSLENIISLPDISNHAQIQDLRIALIQARRSLYDLRKRYGVKHTKILEAEAQVQAIEEQTHTVLLELKAGLNKQYQAALRDEKYYQQLLEQQKVDFQTLASKRDEYNNLTTALNKTKELYKALYQRTKEQTLAGNYLEPDAILYDPAVPADHPSKPNKAMLLVMVVMLTLIFSVVYFIVRAALDNSINSISQMKKRLNVAPVGEIRTFASGVERSKVVRLITKAPLDVDIVHSMRTHILLSHPSCQAIAISSAEHGEGRSLLAHLLARSFSADQKTLLIDLDFFNDGGLTQDLANPSAIGVAELLQGQSPLDAALVIISENLSFLPRGNAVMSSLLMLSSEHVVTLMAELRTRYQRIIVDVAAVNQTQDSQLISRVIDGVVFVLKAGEWRAGDVLNAIDKVKQHRAVLIGAVMNRVADKNLETKEGIRSLNHRMNALINSTGHL
protein production: failed
